# Data: the supplement of paper PMC10724198
# ± gives the standard deviation of the averaged measurements.
# Columns and labels:
# [1] = test system: Saccharomyces cerevisiae; experiment: protein stability index of tFT-peptide fusion (C-terminal peptide) (PSI (0-1 scale)); higher = more stable (slower turnover); conditions: genetic background: wild type; temperature: 30 C
# [2] = test system: Saccharomyces cerevisiae; experiment: as above
# Procedure: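 MPS profiling in S. cerevisiae of the tFT-X12 degron library: putative degron peptides plus stable controls, 12 aa, fused to the C-terminus of a sfGFP-mCherry timer. Cells are FACS-sorted into 8 mCherry/sfGFP bins and deep-sequenced. PSI runs from 0 (unstable) to 1 (stable). Backgrounds are wild type, das1Δ and doa10Δ at 30 °C, and wild type, das1Δ, cdc34-1 and cdc53-1 at 37 °C; 2-3 technical replicates each.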
# [3] = genetic background: cdc34-1, temperature: 37 C
# [4] = genetic background: cdc53-1, temperature: 37 C
# [5] = genetic background: das1 deletion, temperature: 30 C
# [6] = genetic background: das1 deletion, temperature: 37 C
# [7] = genetic background: doa10 deletion, temperature: 30 C
# [8] = genetic background: wild type, temperature: 30 C
# [9] = genetic background: wild type, temperature: 37 C
# 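Note: PSI is a weighted mean of sequencing reads over stability bins, variants kept only with over 10 reads, mCherry proximal and sfGFP distal, peptide attached via GGGS linker.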
Sequence,protein stability index [1],"protein stability index [2, 3]","protein stability index [2, 4]","protein stability index [2, 5]","protein stability index [2, 6]","protein stability index [2, 7]","protein stability index [2, 8]","protein stability index [2, 9]"
RLGRYSIIHCLA,0.15 ± 0.0068,0.295 ± 0.023,0.459 ± 0.044,0.327 ± 0.029,0.52 ± 0.021,0.0877 ± 0.015,0.102 ± 0.028,0.0944 ± 0.058
RLHCFSPILCPI,0.493 ± 0.012,0.6063 ± 0.0042,0.576 ± 0.0073,0.434 ± 0.029,0.59601 ± 0.00033,0.402 ± 0.021,0.436 ± 0.017,0.579 ± 0.036
RLIARFKILRCI,0.0979 ± 0.064,0.259 ± 0.012,0.588 ± 0.011,0.559 ± 0.012,0.635 ± 0.0085,0.0618 ± 0.0034,0.0662 ± 0.0038,0.0702 ± 0.0014
RLINCIYVLMLP,0.398 ± 0.029,0.567 ± 0.042,0.569 ± 0.0072,0.412 ± 0.029,0.606 ± 0.0037,0.261 ± 0.015,0.274 ± 0.033,0.513 ± 0.024
RLLRGDRMVICS,0.433 ± 0.017,0.5515 ± 0.0014,0.565 ± 0.057,0.395 ± 0.039,0.615 ± 0.0066,0.3601 ± 0.0008,0.375 ± 0.022,0.582 ± 0.0066
RLMLSWLALRRC,0.476 ± 0.0067,0.617 ± 0.058,0.665 ± 0.015,0.601 ± 0.036,0.689 ± 0.02,0.351 ± 0.026,0.344 ± 0.068,0.575 ± 0.0095
RLPYSLTFFLLC,0.134 ± 0.009,0.414 ± 0.0067,0.5789 ± 0.0027,0.484 ± 0.038,0.576 ± 0.0034,0.07289 ± 0.00032,0.0628 ± 0.018,0.0714 ± 0.0077
RLVCPFYIACVW,0.516 ± 0.027,0.623 ± 0.012,0.649 ± 0.01,0.509 ± 0.016,0.588 ± 0.014,0.468 ± 0.015,0.488 ± 0.022,0.567 ± 0.031
RNCSFRRIQLAM,0.362 ± 0.045,0.651 ± 0.063,0.699 ± 0.032,0.594 ± 0.0073,0.715 ± 0.0059,0.162 ± 0.0031,0.19 ± 0.022,0.298 ± 0.0095
RNKIWCTVIMRL,0.4002 ± 0.0026,0.51 ± 0.042,0.537 ± 0.0088,0.453 ± 0.036,0.597 ± 0.02,0.229 ± 0.01,0.234 ± 0.046,0.396 ± 0.02
RPAVVPPPFAPL,0.76 ± 0.041,0.652 ± 0.032,0.724 ± 0.023,0.707 ± 0.0089,0.7172 ± 0.0055,0.708 ± 0.018,0.695 ± 0.01,0.6996 ± 0.003
RQALYFLMICGL,0.421 ± 0.0045,0.508 ± 0.024,0.564 ± 0.023,0.407 ± 0.039,0.545 ± 0.0071,0.29391 ± 6e-05,0.318 ± 0.019,0.459 ± 0.027
RRIKIRKQEYIS,0.313 ± 0.029,0.572 ± 0.13,0.696 ± 0.04,0.684 ± 0.029,0.719 ± 0.018,0.185 ± 0.0051,0.217 ± 0.023,0.459 ± 0.021
RRRRHVDHSTQR,0.4737 ± 0.0036,0.495 ± 0.04,0.572 ± 0.0085,0.542 ± 0.011,0.582 ± 0.011,0.557 ± 0.038,0.554 ± 0.045,0.5704 ± 0.0037
RTWLHLVVPVWG,0.3367 ± 0.0022,0.213 ± 0.026,0.265 ± 0.044,0.222 ± 0.034,0.3778 ± 0.0024,0.19 ± 0.0051,0.228 ± 0.037,0.318 ± 0.014
RVGWVVVLGCVG,0.479 ± 0.0089,0.545 ± 0.04,0.548 ± 0.014,0.401 ± 0.027,0.578 ± 0.012,0.366 ± 0.009,0.397 ± 0.015,0.55 ± 0.014
RVHFLIVFLCRF,0.399 ± 0.051,0.441 ± 0.012,0.4927 ± 0.0037,0.369 ± 0.011,0.526 ± 0.012,0.398 ± 0.024,0.361 ± 0.014,0.472 ± 0.021
RVSIIYLGVLIS,0.112 ± 0.025,0.174 ± 0.012,0.297 ± 0.025,0.26 ± 0.024,0.436 ± 0.0092,0.0604 ± 0.011,0.073 ± 0.013,0.0592 ± 0.036
RVTYWKAVLVRL,0.212 ± 0.016,0.47 ± 0.07,0.461 ± 0.022,0.44 ± 0.031,0.6 ± 0.017,0.108 ± 0.025,0.109 ± 0.025,0.13 ± 0.0084
RYCVVDISAFCD,0.465 ± 0.0094,0.489 ± 0.017,0.576 ± 0.021,0.368 ± 0.029,0.5947 ± 0.0057,0.37 ± 0.017,0.388 ± 0.026,0.573 ± 0.024

Sequence,protein stability index [1],"protein stability index [2, 3]","protein stability index [2, 4]","protein stability index [2, 5]","protein stability index [2, 6]","protein stability index [2, 7]","protein stability index [2, 8]","protein stability index [2, 9]"
RYLCLTPALYLS,0.151 ± 0.11,0.45 ± 0.014,0.5588 ± 0.0053,0.509 ± 0.027,0.621 ± 0.0072,0.125 ± 0.017,0.113 ± 0.012,0.157 ± 0.016
SCFRFFFLFLFF,0.322 ± 0.052,0.192 ± 0.011,0.197 ± 0.0042,0.282 ± 0.024,0.361 ± 0.016,0.4322 ± 0.00071,0.238 ± 0.043,0.312 ± 0.0097
SCFRSLAVYFLC,0.155 ± 0.032,0.333 ± 0.025,0.624 ± 0.02,0.603 ± 0.033,0.678 ± 0.01,0.0706 ± 0.0018,0.07 ± 0.015,0.0763 ± 0.0025
SCLVLDYCFSLV,0.442 ± 0.016,0.649 ± 0.037,0.631 ± 0.012,0.419 ± 0.029,0.643 ± 0.0034,0.446 ± 0.019,0.435 ± 0.02,0.613 ± 0.0062
SCYDYVILLQLS,0.304 ± 0.026,0.506 ± 0.051,0.65547 ± 0.00031,0.435 ± 0.04,0.619 ± 0.025,0.178 ± 0.01,0.213 ± 0.042,0.393 ± 0.0047
SFFFTLLICFLF,0.253 ± 0.011,0.161 ± 0.017,0.107 ± 0.0062,0.234 ± 0.0085,0.312 ± 0.0082,0.26 ± 0.021,0.166 ± 0.028,0.244 ± 0.018
SFLLGCCWLVLC,0.155 ± 0.0099,0.222 ± 0.04,0.309 ± 0.0045,0.27 ± 0.03,0.3934 ± 0.0034,0.1353 ± 0.00058,0.116 ± 0.0073,0.127 ± 0.0028
SFLLVWCLLPEI,0.415 ± 0.0064,0.364 ± 0.056,0.479 ± 0.096,0.309 ± 0.029,0.4729 ± 0.0046,0.2695 ± 0.0018,0.299 ± 0.035,0.451 ± 0.033
SFLVFLYFFMVF,0.379 ± 0.013,0.3637 ± 0.0027,0.429 ± 0.058,0.335 ± 0.038,0.449 ± 0.02,0.316 ± 0.016,0.303 ± 0.034,0.446 ± 0.031
SGWGGGTWVKMG,0.3093 ± 0.0025,0.537 ± 0.019,0.721 ± 0.046,0.662 ± 0.024,0.76 ± 0.011,0.113 ± 0.013,0.12 ± 0.013,0.191 ± 0.018
SIQRKIRRMKEN,0.4687 ± 0.0016,0.559 ± 0.093,0.732 ± 0.046,0.699 ± 0.048,0.7 ± 0.014,0.355 ± 0.017,0.333 ± 0.054,0.566 ± 0.0026
SIVDLFRLRSLS,0.374 ± 0.12,0.643 ± 0.022,0.722 ± 0.016,0.684 ± 0.008,0.7295 ± 0.0054,0.264 ± 0.032,0.298 ± 0.012,0.519 ± 0.0074
SLALLFSFLLFL,0.438 ± 0.013,0.504 ± 0.041,0.404 ± 0.028,0.448 ± 0.021,0.536 ± 0.0096,0.605 ± 0.056,0.461 ± 0.015,0.54 ± 0.042
SLFPHIFFFFFA,0.49 ± 0.013,0.43487 ± 0.00035,0.467 ± 0.015,0.386 ± 0.036,0.428 ± 0.0029,0.343 ± 0.015,0.295 ± 0.032,0.384 ± 0.0099
SLICLSVGVLLR,0.292 ± 0.0045,0.128 ± 0.024,0.181 ± 0.061,0.189 ± 0.029,0.337 ± 0.071,0.205 ± 0.003,0.188 ± 0.039,0.258 ± 0.021
SLSSSFQFSSPS,0.726 ± 0.094,0.701 ± 0.035,0.7506 ± 0.0045,0.69 ± 0.051,0.722 ± 0.026,0.6672 ± 0.00083,0.65 ± 0.032,0.7357 ± 0.0029
SPIGIFCFILCR,0.187 ± 0.049,0.0729 ± 0.011,0.0462 ± 0.023,0.153 ± 0.027,0.211 ± 0.016,0.176 ± 0.019,0.147 ± 0.038,0.157 ± 0.013
SPTQIPLWILAS,0.186 ± 0.015,0.258 ± 0.0095,0.394 ± 0.04,0.308 ± 0.04,0.4539 ± 0.0022,0.102 ± 0.0074,0.114 ± 0.014,0.12 ± 0.015
SRGRVLRLLLLV,0.124 ± 0.0028,0.303 ± 0.0055,0.428 ± 0.013,0.393 ± 0.025,0.524 ± 0.0093,0.0727 ± 0.011,0.0574 ± 0.026,0.0678 ± 0.018
